In patent US20260125454A1 (SHANGHAI JUNSHI BIOSCIENCES, published 2026):
Changes are numbered by the printed parent chain.

B1: hu1 (antibody, V domains shown)
VH: QVQLVQSGAEVKKPGASVKVSCKASGYTFTDYNMHWVRQAPGQGLEWMGYIFPYNGVAVYNRKFRSRVTLTIDTSSSTAYMELRSLRSDDTAVYYCAREGLGGYWGQGTLVTVSS
VL: DIVLTQSPASLAVSPGQRATITCKASQNIDYDGYAYLNWYQQKPGQPPKVLIYSVFNLESGVPARFSGSGSGTDFTLTINPVEANDTANYYCQQSNEFPYTFGQGTKLEIK
notes: 1B2 HC-1/1A2 LC2-1
B2: hu2 (antibody, V domains shown)
VH: B1 VH
VL: B1 VL with N85D
notes: 1B2 HC-1/1A2 LC2-2
B3: hu7 (antibody, V domains shown)
VH: B1 VH
VL: B1 VL with Y31F, L37M, N85D, N96H, F98V
notes: 1B2 HC-1/1F5 LC1-3
B4: hu14 (antibody, V domains shown)
VH: B1 VH with G44R, I72V, R84S, D89E
VL: B1 VL
notes: 1B2 HC-2/1A2 LC2-1
B5: hu15 (antibody, V domains shown)
VH: B1 VH with G44R, I72V, R84S, D89E
VL: B1 VL with N85D
notes: 1B2 HC-2/1A2 LC2-2
B6: hu20 (antibody, V domains shown)
VH: B1 VH with G44R, I72V, R84S, D89E
VL: B1 VL with Y31F, L37M, N85D, N96H, F98V
notes: 1B2 HC-2/1F5 LC1-3
B7: hu27 (antibody, V domains shown)
VH: QVQLVQSGAEVKKPGASVKVSCKASGYTFIDFNMHWVRQAPGQRLEWMGYIYPYNGDVVYNQNFTNRVTLTVDTSSSTAYMELSSLRSEDTAVYYCAREGLGGYWGQGTLVTVSS
VL: B1 VL
notes: 1F5 HC-1/1A2 LC2-1
B8: hu28 (antibody, V domains shown)
VH: B7 VH
VL: B1 VL with N85D
notes: 1F5 HC-1/1A2 LC2-2
B9: hu40 (antibody, V domains shown)
VH: B7 VH with I30T
VL: B1 VL
notes: 1F5 HC-2/1A2 LC2-1
B10: hu41 (antibody, V domains shown)
VH: B7 VH with I30T
VL: B1 VL with N85D
notes: 1F5 HC-2/1A2 LC2-2
B11: hu46 (antibody, V domains shown)
VH: B7 VH with I30T
VL: B1 VL with Y31F, L37M, N85D, N96H, F98V
notes: 1F5 HC-2/1F5 LC1-3
B12: hu53 (antibody, V domains shown)
VH: B7 VH with I30T, R44G, S84R, E89D
VL: B1 VL
notes: 1F5 HC-3/1A2 LC2-1
B13: hu54 (antibody, V domains shown)
VH: B7 VH with I30T, R44G, S84R, E89D
VL: B1 VL with N85D
notes: 1F5 HC-3/1A2 LC2-2
B14: hu59 (antibody, V domains shown)
VH: B7 VH with I30T, R44G, S84R, E89D
VL: B1 VL with Y31F, L37M, N85D, N96H, F98V
notes: 1F5 HC-3/1F5 LC1-3
B15: hu79 (antibody, V domains shown)
VH: B7 VH with G56A, N63D
VL: B1 VL
notes: 1F5 HC-5/1A2 LC2-1
B16: hu80 (antibody, V domains shown)
VH: B7 VH with G56A, N63D
VL: B1 VL with N85D
notes: 1F5 HC-5/1A2 LC2-2
B17: hu92 (antibody, V domains shown)
VH: B7 VH with I30T, F32Y, I51V, D57G, V58S, V59A, N63K, T65K, N66S
VL: B1 VL
notes: 2A2 HC-1/1A2 LC2-1
B18: hu93 (antibody, V domains shown)
VH: B7 VH with I30T, F32Y, I51V, D57G, V58S, V59A, N63K, T65K, N66S
VL: B1 VL with N85D
notes: 2A2 HC-1/1A2 LC2-2
B19: hu105 (antibody, V domains shown)
VH: B7 VH with I30T, F32Y, R44G, Y50N, D57G, V58T, N63K, T65N, S85R, E89D
VL: B1 VL
notes: 2B8 HC1-1/1A2 LC2-1
B20: hu106 (antibody, V domains shown)
VH: B7 VH with I30T, F32Y, R44G, Y50N, D57G, V58T, N63K, T65N, S85R, E89D
VL: B1 VL with N85D
notes: 2B8 HC1-1/1A2 LC2-2
B21: hu111 (antibody, V domains shown)
VH: B7 VH with I30T, F32Y, R44G, Y50N, D57G, V58T, N63K, T65N, S85R, E89D
VL: B1 VL with Y31F, L37M, N85D, N96H, F98V
notes: 2B8 HC1-1/1F5 LC1-3
B22: hu118 (antibody, V domains shown)
VH: B1 VH with Y50N, F52Y, V57G, A58T, R62Q, R65N, S66N, I72V
VL: B1 VL
notes: 2B8 HC1-2/1A2 LC2-1
B23: hu119 (antibody, V domains shown)
VH: B1 VH with Y50N, F52Y, V57G, A58T, R62Q, R65N, S66N, I72V
VL: B1 VL with N85D
notes: 2B8 HC1-2/1A2 LC2-2
B24: hu124 (antibody, V domains shown)
VH: B1 VH with Y50N, F52Y, V57G, A58T, R62Q, R65N, S66N, I72V
VL: B1 VL with Y31F, L37M, N85D, N96H, F98V
notes: 2B8 HC1-2/1F5 LC1-3
B25: hu132 (antibody, V domains shown)
VH: QVQLVQSGAEVKKPGASVKVSCKASGYTFTDYNMHWVRQAPGQGLEWMGNIYPYNAGTVYNQKFNNRVTLTVDTSSSTAYMELSRLRSDDTAVYYCAREGLGGYWGQGTLVTVSS
VL: B1 VL with N85D
notes: 2B8 HC1-3/1A2 LC2-2
B26: hu137 (antibody, V domains shown)
VH: B25 VH
VL: B1 VL with Y31F, L37M, N85D, N96H, F98V
notes: 2B8 HC1-3/1F5 LC1-3
B27: hu144 (antibody, V domains shown)
VH: B7 VH with A24T, I30T, F32Y, Y52S, D57G, V58T, V59A, N63K, T65K, N66F
VL: B1 VL
notes: 3E5 HC-1/1A2 LC2-1
B28: hu157 (antibody, V domains shown)
VH: B7 VH with I30T, F32Y, Y52S, D57G, V58T, V59A, N63K, T65K, N66F
VL: B1 VL
notes: 3E5 HC-2/1A2 LC2-1
B29: hu158 (antibody, V domains shown)
VH: B7 VH with I30T, F32Y, Y52S, D57G, V58T, V59A, N63K, T65K, N66F
VL: B1 VL with N85D
notes: 3E5 HC-2/1A2 LC2-2
B30: hu163 (antibody, V domains shown)
VH: B7 VH with I30T, F32Y, Y52S, D57G, V58T, V59A, N63K, T65K, N66F
VL: B1 VL with Y31F, L37M, N85D, N96H, F98V
notes: 3E5 HC-2/1F5 LC1-3
B31: hu170 (antibody, V domains shown)
VH: B25 VH with N50Y, Y52S, A56G, V59A, N65K, N66F, A92V
VL: B1 VL
notes: 3E5 HC-3/1A2 LC2-1
B32: hu171 (antibody, V domains shown)
VH: B25 VH with N50Y, Y52S, A56G, V59A, N65K, N66F, A92V
VL: B1 VL with N85D
notes: 3E5 HC-3/1A2 LC2-2
B33: hu176 (antibody, V domains shown)
VH: B25 VH with N50Y, Y52S, A56G, V59A, N65K, N66F, A92V
VL: B1 VL with Y31F, L37M, N85D, N96H, F98V
notes: 3E5 HC-3/1F5 LC1-3
B34: hu183 (antibody, V domains shown)
VH: B25 VH with A24T, G44R, N50Y, Y52S, V59A, N65K, N66F, R85S, D89E
VL: B1 VL
notes: 3E5 HC-4/1A2 LC2-1
B35: hu184 (antibody, V domains shown)
VH: B25 VH with A24T, G44R, N50Y, Y52S, V59A, N65K, N66F, R85S, D89E
VL: B1 VL with N85D
notes: 3E5 HC-4/1A2 LC2-2
B36: hu196 (antibody, V domains shown)
VH: B25 VH with N50Y, A56G, G57H, N65R, L70M, S84R, R85S, R98K
VL: B1 VL
notes: 3H10 HC-1/1A2 LC2-1
B37: hu197 (antibody, V domains shown)
VH: B25 VH with N50Y, A56G, G57H, N65R, L70M, S84R, R85S, R98K
VL: B1 VL with N85D
notes: 3H10 HC-1/1A2 LC2-2
B38: hu202 (antibody, V domains shown)
VH: B25 VH with N50Y, A56G, G57H, N65R, L70M, S84R, R85S, R98K
VL: B1 VL with Y31F, L37M, N85D, N96H, F98V
notes: 3H10 HC-1/1F5 LC1-3
B39: hu209 (antibody, V domains shown)
VH: B25 VH with N50Y, A56G, G57H, N65R, S84R, R85S
VL: B1 VL
notes: 3H10 HC-2/1A2 LC2-1
B40: hu215 (antibody, V domains shown)
VH: B25 VH with N50Y, A56G, G57H, N65R, S84R, R85S
VL: B1 VL with Y31F, L37M, N85D, N96H, F98V
notes: 3H10 HC-2/1F5 LC1-3

Target: T1, Biotin-huCGRPaSA (human, not fully specified; biotin (position not given))
T1 construct: exact construct ('aSA') not explained; also called Biotin CGRPaSA; full-length (1-37) CGRP
T1 peptide: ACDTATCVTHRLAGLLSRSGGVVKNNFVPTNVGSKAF
Assay: ELISA, supernatant; relative to chimeric C245
Procedure: Biotin CGRPaSA was diluted with PBS (Hyclone) to 1.0 μg/mL, and the dilution was added to a microplate at 100 μL/well. The plate was let stand in an incubator at 37° C. and coated for 90 min and then washed, and 2% BSA was added to the plate at 200 μL/well. The plate was incubated in an incubator at 37° C. for 90 min and then washed. The humanized antibodies in Table 8 and the reference antibody (chimeric antibody C245) were diluted to 1000 ng/mL with a diluent (2% BSA) with a dilution factor of not more than 10. Then, the chimeric antibodies and the reference antibody were serially 2.5-fold diluted on a sample dilution plate. All the chimeric antibody solutions and the reference antibody solution were added into plates at 100 μL/well, and the plates were incubated in a thermostat incubator at 37° C. for 60 min and washed. An HRP-conjugated goat anti-human antibody IgG (manufacturer: Sigma, Cat. No. A0170; Fc specificity) was diluted 5000-fold with 2% BSA and added into the plates at 100 μL/well, and the plates were incubated in the thermostat incubator at 37° C. for 60 min and washed. Chromogenic reagent TMB was carefully added at 100 μL/well to avoid bubbles, and the system was incubated at 37° C. for 15 min away from light for chromogenic reaction. Finally, a 2 M hydrochloric acid solution was added at 100 μL/well to stop the reaction while avoiding bubbles, and the plates were read on a microplate reader within 10 min (wavelength: 450/620 nm).

Row | Binder | Relative binding activity, %
1 | B1 | 58%
2 | B2 | 64%
3 | B3 | 80%
4 | B4 | 32%
5 | B5 | 44%
6 | B6 | 40%
7 | B7 | 28%
8 | B8 | 71%
9 | B9 | 49%
10 | B10 | 61%
11 | B11 | 25%
12 | B12 | 13%
13 | B13 | 22%
14 | B14 | 70%
15 | B15 | 80%
16 | B16 | 99%
17 | B17 | 32%
18 | B18 | 45%
19 | B19 | 31%
20 | B20 | 38%

Row | Binder | Relative binding activity, %
21 | B21 | 46%
22 | B22 | 60%
23 | B23 | 51%
24 | B24 | 96%
25 | B25 | 108%
26 | B26 | 93%
27 | B27 | 101%
28 | B28 | 15%
29 | B29 | 71%
30 | B30 | 78%
31 | B31 | 75%
32 | B32 | 63%
33 | B33 | 65%
34 | B34 | 26%
35 | B35 | 23%
36 | B36 | 45%
37 | B37 | 49%
38 | B38 | 90%
39 | B39 | 64%
40 | B40 | 94%
